In US9289506B2, “Surface binding of nanoparticle based drug delivery to tissue” (Massachusetts Institute of Technology, priority 2013, dated 2016):

Experiments:
[1] = Intra-articular injection of Avidin or Neutravidin in rat knee joints: penetration, uptake and retention in joint tissues; conditions: for mean concentration in articular cartilage: rat, i.a. injection
Method: Intra-articular (i.a.) injections of 50 μl of 50 μM Avidin (pI 10.5, 66 kDa, diameter ˜7 nm) or Neutravidin (neutral at pH 7, 60 kDa, diameter ˜7 nm) conjugated with Texas Red (both from Invitrogen, CA) were administered in the right knee joints of healthy 18-20 weeks old Fischer-344 rats (Charles River Laboratories). Following the injection, rat knees were flexed and extended to distribute the injected solute throughout the intra-articular space. Contralateral left knees were used as controls. Avidin injected rats were sacrificed at 4 different time points (6 h, 1 d, 4 d, 7 d) and Neutravidin injected rats were sacrificed after 1 day. The following tissue types were extracted from each joint: articular cartilage removed from the patellar groove, femoral condyle and tibial plateau using a scalpel; medial and lateral menisci; i.a. ligaments (ACL & PCL); patellar and quadriceps tendons; and femoral bone. 6 rats were used per treatment condition for a total of 30 rats. Using a digital caliper (Fisher Scientific), the joint thickness was measured before and after the injection at each time point to check for joint swelling indicating an inflammatory response to the injection.
Tissue samples extracted from the rat joints injected with Avidin-Texas Red (Excitation at 595 nm and emission at 615 nm) and sacrificed at 6 h were imaged using a confocal microscope (OLYMPUS, FluoView FV1000) at 10× magnification by taking Z stacks. Images were taken in X-Y plane, which represents the surface through which Avidin diffused. 3D images were reconstructed using Z stacking (slice thickness˜4.5 μm) and cross-sections in the X-Z plane of these 3D images were taken.
Tissue samples from all treatment conditions were then desorbed in 10×PBS for 48 h in 37° C. incubator to disrupt electrostatic interactions and release Avidin/Neutravidin into the desorption bath. […] At the end of the experiment, tissue samples were removed from the bath, lyophilized and the dry weight was measured. Fluorescence signal from desorption bath was quantified using a plate reader (Synergy HT, BioTek). […] The solute uptake was calculated as the concentration of labeled solute in the tissue samples normalized by tissue dry weight.
The half-life of Avidin was calculated by fitting an exponential curve to the experimental data:
Where, C0 is the initial and C(t) is the final Avidin concentration in tissue after time t and λ is the decay constant.

[2] = Equilibrium uptake and desorption of Avidin and NeutrAvidin in cartilage disks; format: in vitro ADME, bovine; conditions: for mean uptake ratio: 24 h
Description: Cartilage disks were harvested from the femoropatellar grooves of 1-2 week old bovine calf knee joints (obtained from Research 87, Hopkinton, Mass.) as described previously (Patwari et al., Arthritis Rheum, 2003). Briefly, cylindrical cartilage disks (3 mm or 6 mm diameter) were cored using a dermal punch and then sliced to obtain the top 1 mm of cartilage with intact superficial zone. Cartilage disks for all treatment groups were matched for depth and location along the joint surface. The disks were then pre-equilibrated in PBS (without Ca^2±/Mg^2±) supplemented with protease inhibitors (Complete Protease Cocktail tablet in 50 mL PBS, Roche Applied Science, IN) in a 37° C., 5% CO2 incubator for 24-48 h.
Equilibrium uptake of Avidin and NeutrAvidin: 3 mm diameter, 1 mm thick cartilage explants were incubated for specific times in 300 μl of known concentration (3 μM) of FITC-Avidin and FITC-NeutrAvidin, supplemented with protease inhibitors at 37° C. in a 96 well plate format. After removal from the absorption baths, the disks were rinsed, gently wiped and then incubated in 1× or 10×PBS supplemented with protease inhibitors for 24 h or longer as specified. At the end of the experiment, the surfaces of each disk were quickly blotted with Kimwipes and the wet weight was measured. The disks were then lyophilized and the dry weight was measured; the water weight was calculated from the tissue wet and dry weights. The fluorescence signal in the absorption and desorption baths was quantified using a plate reader (1400 Wallace Victor, PerkinElmer, MA); the solute content inside the cartilage disk was determined from the difference between the fluorescence reading of the absorption/desorption baths before and after incubation. […] The solute uptake ratio was calculated as the concentration of the FITC-solute in the cartilage (per intra-tissue water weight) normalized to the concentration of FITC-solute in the equilibration bath.

[3] = Dose dependent biological response to Avidin in bovine cartilage explants (viability, sGAG loss, biosynthesis); format: cell-based
Method: Briefly, cylindrical cartilage disks (3 mm) were cored using a dermal punch and then sliced to obtain the top 1 mm of cartilage with intact superficial zone. Cartilage disks for all treatment groups were matched for depth and location along the joint surface. They were equilibrated in serum free medium (low glucose Dulbecco's Modified Eagle's Medium [DMEM; 1 g/L]) supplemented with 10 mM HEPES buffer, 0.1 mM nonessential amino acids, 0.4 mM proline, […] ascorbic acis, 100 units/ml penicillin G, 100 µg/ml streptomycin and […] amphotericin B (all from Sigma Aldrich, MO) for 48 h in a 5% CO2 incubator at 37° C. prior to any treatment. […] The medium was changed every 2 days without replenishing Avidin. This simulated the in-vivo condition of one time Avidin injection. The experiment was conducted for three time periods: 2, 4 and 10 days. Upon termination of culture at these time points, 100-200 μm thick slices were cut from the center of disks from each treatment condition. The slices were immediately stained for 2-3 minutes in the dark with fluorescein diacetate (FDA; 4 mg/ml in PBS) and propidium iodide (PI; 40 mg/ml in PBS) (both from Sigma Aldrich, MO). FDA was used to stain the viable cells green, while PI stained the non-viable cells red. The slices were washed with PBS and then imaged using Nikon fluorescence microscope with a 4× objective. Two days before the termination of culture of day 4 and day 10 experiments, the medium was supplemented with 5 μCi/mL [^35S]-sulfate and 10 μCi/mL [^3H]-proline (both from PerkinElmer, Norwalk, Conn.). […] The wet weight was measured for each disk and then digested with proteinase K (Roche, Indianapolis, Minn.) overnight. The cumulative sGAG content in the medium and digested explants was measured using the DMMB assay. The amount of radiolabel in each digested sample and medium standards (^35S and ^3H) were measured using a liquid scintillation counter. Radiolabeled concentration was calculated from the standards and then normalized to the wet weight.

[4] = Net charge of Avidin estimated from reported electrokinetic zeta potential; format: physicochemical; conditions: Grahame equation from zeta potential, spherical shape diameter ~7 nm
Description: The zeta potential of Avidin molecules in dilute solution of DI water at pH 5 has been reported to be 10 mV (Dougherty et al., Langmuir, 2009). Using Grahame Equation of electrokinetics (Grodzinsky et al., New York: Garland Science, 2011) that related zeta potential to particle surface charge density, and assuming that Avidin attains a spherical shape (diameter ˜7 nm), the zeta potential of 10 mV corresponds to an effective net molecular charge of ˜+7.3.

## Avidin: positively charged globular glycosylated tetrameric protein, pI 10.5, 66 kDa, diameter ~7 nm (Invitrogen); SEQ ID NO 1
[1]; 6 h, 1 d, 4 d and 7 d
  knee joint inflammation (swelling, stiffness) after i.a. injection: did not present any signs of swelling or joint stiffness
[1]; 4 days
  concentration in articular cartilage as percent of 24 h value: 10.3%
  mean concentration in articular cartilage: 0.34 µg/mg
[1]; 7 days
  concentration in articular cartilage as percent of 24 h value: 4.1%
  mean concentration in articular cartilage: 0.13 µg/mg
[1]; Cartilage
  Half-life: 29.0 h
[1]; Ligament
  Half-life: 25.7 h
[1]; Meniscus
  Half-life: 21.4 h
[1]; Patella Tendon
  Half-life: 16.9 h
[1]; Quadriceps Tendon
  Half-life: 27.2 h
[1]; any time point
  detection in the femoral bone: Neither Avidin nor Neutravidin was detected
[1]; cartilage, menisci, ligaments, tendons, confocal
  time to diffuse through the full thickness of joint tissues after i.a. injection: ≤ 6 h
[1]; rat knee
  dwell time inside the joint: 7 days
[1]; 6 h
  mean concentration in articular cartilage: 4.7 μg/mg tissue dry weight
[1]; 24 h
  mean concentration in articular cartilage: 3.3 µg/mg
[2]; 10×PBS, within 24 h
  percent of absorbed solute diffused out of the cartilage: ~69%
[2]; 40% GAG-depleted cartilage (chondroitinase-ABC)
  mean uptake ratio: 24
[2]; normal cartilage
  higher uptake of Avidin compared to NeutrAvidin: greater than 400 times
  mean uptake ratio: ~183
[3]; 100 nM and 1 μM, 4 and 10 days
  cumulative sGAG loss to medium vs untreated control: no significant difference
[3]; 100 μM, 4 days
  cumulative sGAG loss to medium: 14.6%
[3]; 100 μM, 10 days
  cumulative sGAG loss to medium: 20%
[3]; 100 μM, both 4 and 10 days
  increase in sGAG loss compared to untreated control: about 2 folds
[3]; increasing dose 0-100 μM, last 48 h of culture
  rate of protein and sGAG synthesis: no significant changes
[3]; one time dose 0-100 μM, 2, 4 and 10 days
  chondrocyte viability (live-dead fluorescence): no significant difference in cell viability
[3]; one time dose, bovine cartilage explants
  safe dose: at least 1 μM
[4]
  effective net molecular charge: ~+7.3
